Source: patent publication US20240133890A1

Biological target: WSTF (BAZ1B) (UniProt Q9UIG0)
Sequence of UniProt Q9UIG0 (Q9UIG0 whole entry): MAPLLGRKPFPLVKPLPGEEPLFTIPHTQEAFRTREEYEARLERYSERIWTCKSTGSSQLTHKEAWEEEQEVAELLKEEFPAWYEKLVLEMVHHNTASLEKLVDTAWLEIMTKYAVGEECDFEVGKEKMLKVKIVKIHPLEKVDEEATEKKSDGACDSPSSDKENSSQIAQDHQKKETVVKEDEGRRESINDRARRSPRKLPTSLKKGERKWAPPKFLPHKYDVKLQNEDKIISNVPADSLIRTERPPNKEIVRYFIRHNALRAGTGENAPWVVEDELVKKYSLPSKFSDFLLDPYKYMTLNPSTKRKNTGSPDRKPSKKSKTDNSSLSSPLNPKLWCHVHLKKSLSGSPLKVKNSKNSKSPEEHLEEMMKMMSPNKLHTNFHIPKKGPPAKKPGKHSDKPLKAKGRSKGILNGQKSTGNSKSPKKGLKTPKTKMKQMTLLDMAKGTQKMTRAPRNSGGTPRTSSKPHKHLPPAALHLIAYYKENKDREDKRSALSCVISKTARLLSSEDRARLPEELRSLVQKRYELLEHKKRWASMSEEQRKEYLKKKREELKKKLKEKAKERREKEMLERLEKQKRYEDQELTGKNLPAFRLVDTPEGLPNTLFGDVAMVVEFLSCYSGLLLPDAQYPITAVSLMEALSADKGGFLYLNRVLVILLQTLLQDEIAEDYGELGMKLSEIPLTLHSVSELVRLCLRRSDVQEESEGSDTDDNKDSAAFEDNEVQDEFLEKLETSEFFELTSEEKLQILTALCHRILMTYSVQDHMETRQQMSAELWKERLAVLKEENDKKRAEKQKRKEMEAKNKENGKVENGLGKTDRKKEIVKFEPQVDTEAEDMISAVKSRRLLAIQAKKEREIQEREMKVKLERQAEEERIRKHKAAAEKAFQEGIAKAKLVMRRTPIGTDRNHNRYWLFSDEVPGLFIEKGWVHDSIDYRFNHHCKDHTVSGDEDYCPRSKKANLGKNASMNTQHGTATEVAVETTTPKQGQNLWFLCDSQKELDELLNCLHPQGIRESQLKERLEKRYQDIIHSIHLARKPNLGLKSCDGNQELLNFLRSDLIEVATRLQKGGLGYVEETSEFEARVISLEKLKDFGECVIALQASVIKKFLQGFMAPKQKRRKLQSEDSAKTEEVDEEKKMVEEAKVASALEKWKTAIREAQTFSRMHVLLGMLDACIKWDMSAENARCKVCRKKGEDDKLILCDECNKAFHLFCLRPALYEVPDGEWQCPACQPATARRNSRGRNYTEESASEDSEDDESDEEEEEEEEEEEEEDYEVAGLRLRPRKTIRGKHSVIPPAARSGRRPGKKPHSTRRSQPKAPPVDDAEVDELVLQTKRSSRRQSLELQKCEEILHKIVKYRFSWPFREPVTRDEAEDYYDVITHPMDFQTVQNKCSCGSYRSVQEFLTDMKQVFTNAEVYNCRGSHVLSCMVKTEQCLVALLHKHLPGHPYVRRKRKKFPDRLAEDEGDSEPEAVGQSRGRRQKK

## JMJD6
  level of WSTF hydroxylation (Western blot with Ab1, MCF-7 nucleoprotein): after JMJD6 knockdown or mutation, the level of WSTF hydroxylation was significantly reduced
